Target: human C5aR1 (human) (UniProt P21730)
Experiment: cell-based or functional assay

human C5aR1 (human), sequence (P21730 whole entry): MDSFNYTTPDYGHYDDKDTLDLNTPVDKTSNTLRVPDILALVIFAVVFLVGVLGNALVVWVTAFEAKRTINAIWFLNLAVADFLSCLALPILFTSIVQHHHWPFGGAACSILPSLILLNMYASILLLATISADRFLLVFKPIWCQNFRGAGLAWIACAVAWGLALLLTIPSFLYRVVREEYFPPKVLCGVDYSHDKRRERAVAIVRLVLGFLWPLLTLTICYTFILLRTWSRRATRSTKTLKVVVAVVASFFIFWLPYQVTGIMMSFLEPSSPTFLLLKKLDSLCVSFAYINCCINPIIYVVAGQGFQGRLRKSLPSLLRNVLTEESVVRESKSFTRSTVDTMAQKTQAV

- EC50[M] hC5a, luciferase reporter in HEK293/Gα16/hC5aR1/NFAT-luc cells: 3.9e-10 M
Substance: hC5a (from UniProt P01031 678-751) (ligand)

— patent US20170355757A1
